Test results published in article PMC3689916, “Vaspin inhibits kallikrein 7 by serpin mechanism” (Cellular and Molecular Life Sciences: CMLS, 2013).

Molecular target: T1, recombinant human vaspin (visceral adipose tissue-derived serpin; serpinA12), 10×His fusion protein (human, UniProt Q8IW75 22-414)
T1 construct: the crystal structure model covers residues 37-366 and 378-414 (chain A); The natural signal peptide is probably absent from the construct; also called native human vaspin; 10×His–vaspin
T1 sequence: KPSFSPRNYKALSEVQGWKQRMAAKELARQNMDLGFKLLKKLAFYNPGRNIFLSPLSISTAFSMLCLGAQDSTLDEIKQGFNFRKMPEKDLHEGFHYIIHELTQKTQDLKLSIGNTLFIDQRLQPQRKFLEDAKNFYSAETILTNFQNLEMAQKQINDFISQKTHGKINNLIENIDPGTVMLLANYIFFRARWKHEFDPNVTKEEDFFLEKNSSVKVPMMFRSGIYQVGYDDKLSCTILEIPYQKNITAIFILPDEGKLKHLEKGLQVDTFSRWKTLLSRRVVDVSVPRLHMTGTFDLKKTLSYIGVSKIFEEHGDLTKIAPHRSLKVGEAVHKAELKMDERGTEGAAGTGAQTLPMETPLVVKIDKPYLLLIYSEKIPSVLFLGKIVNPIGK
Test: protease activity assay, association rate under pseudo-first-order conditions (residual activity, fluorogenic peptide substrate); tenfold molar excess of vaspin over hK7; remaining hK7 activity against time; k ass = k obs/[I] from a linear fit of ln activity against time
Settings: both partners purified

kon: 7300 M⁻¹ s⁻¹
B1: recombinant human kallikrein 7 (hK7) (enzyme, UniProt P49862 23-253, looked up)
chain: IIDGAPCARGSHPWQVALLSGNQLHCGGVLVNERWVLTAAHCKMNEYTVHLGSDTLGDRRAQRIKASKSFRHPGYSTQTHVNDLMLVKLNSQARLSSMVKKVRLPSRCEPPGTTCTVSGWGTTTSPDVTFPSDLMCVDVKLISPQDCTKVYKDLLENSMLCAGIPDSKKNACNGDSGGPLVCRGTLQGLVSWGTFPCGQPNDPGVYTQVCKFTKWINDTMKKHR
notes: source: bought: R&D Systems
